Measurements published in publication PMC7533328, “Sulfane sulfur‐activated actinorhodin production and sporulation is maintained by a natural gene circuit in Streptomyces coelicolor”.
Substitutions are numbered along the chain they refer to.

T1: ScCsoR (Streptomyces coelicolor M145) (UniProt Q9RD62)
T1 sequence: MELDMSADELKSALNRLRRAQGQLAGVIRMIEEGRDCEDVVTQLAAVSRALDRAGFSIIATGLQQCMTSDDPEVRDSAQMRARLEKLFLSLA

T2: ScCsoR-C37S C38S (Streptomyces coelicolor M145), ORF:9a82776c
T2 sequence: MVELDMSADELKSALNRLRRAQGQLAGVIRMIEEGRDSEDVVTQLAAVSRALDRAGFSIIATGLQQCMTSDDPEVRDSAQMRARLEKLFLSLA

T3: ScCsoR-C66S C67S (Streptomyces coelicolor M145), ORF:9a82776c
T3 sequence: T2 sequence with S38C, C67S

T4: ScCsoR-C37S-C66S C38S;C67S (Streptomyces coelicolor M145), ORF:9a82776c
T4 sequence: T2 sequence with C67S

T5: ScCsoR (Streptomyces coelicolor M145, UniProt Q9RD62 1-92)
T5 sequence: T1 sequence

B1: Scpdo 79-bp probe (bsI, bsII) (dsDNA)
DNA 1: CCTGGGTATATCTGTTACGGTGGCCGGAAGAGATACCCCAGGGGGTAATTCCGGAAGGAGAGCGTGCCGTGTTCTTTGT
DNA 2: ACAAAGAACACGGCACGCTCTCCTTCCGGAATTACCCCCTGGGGTATCTCTTCCGGCCACCGTAACAGATATACCCAGG
B2: hrdB 79-bp competitor DNA (dsDNA)
DNA 1: CATTCCCAAGCCGGTGGTCGGCCCCTGTCCGCCGTGGACGGGGCCGGAAGCCGTTTTTCAACGTTCCGAGAGGTTGTTC
DNA 2: GAACAACCTCTCGGAACGTTGAAAAACGGCTTCCGGCCCCGTCCACGGCGGACAGGGGCCGACCACCGGCTTGGGAATG

Experiments:
[1] = molecular target: T1, ScCsoR (Streptomyces coelicolor M145); test: EMSA; settings: 20 mM Tris-HCl pH 8.0, 2 mM EDTA, 20 mM KCl, 0.5 mM DTT (or 1-3 mM HSnH), 4% Ficoll-400, 1 nM probe, 25 C, 15 min
[2] = tested on: T2, ScCsoR-C37S C38S (Streptomyces coelicolor M145), ORF:9a82776c; test: EMSA; settings: 20 mM Tris-HCl pH 8.0, 2 mM EDTA, 20 mM KCl, 0.5 mM DTT (or 1-3 mM HSnH), 4% Ficoll-400, 1 nM probe, 25 C, 15 min
[3] = tested on: T3, ScCsoR-C66S C67S (Streptomyces coelicolor M145), ORF:9a82776c; test: EMSA; settings: 20 mM Tris-HCl pH 8.0, 2 mM EDTA, 20 mM KCl, 0.5 mM DTT (or 1-3 mM HSnH), 4% Ficoll-400, 1 nM probe, 25 C, 15 min
[4] = tested on: T4, ScCsoR-C37S-C66S C38S;C67S (Streptomyces coelicolor M145), ORF:9a82776c; test: EMSA; settings: 20 mM Tris-HCl pH 8.0, 2 mM EDTA, 20 mM KCl, 0.5 mM DTT (or 1-3 mM HSnH), 4% Ficoll-400, 1 nM probe, 25 C, 15 min
[5] = molecular target: T5, ScCsoR; test: EMSA; DTT; also with 50-fold competitor DNA; 20 mM Tris-HCl pH 8.0, 2 mM EDTA, 20 mM KCl, 0.5 mM DTT (or 1-3 mM HSnH), 4% Ficoll-400, 1 nM probe, 25 C, 15 min; settings: protein: recombinant; tags: N-terminal His-tag (pET15b); chain copies: 4; label: 5'-biotin on strand 1; blunt
[6] = molecular target: T5, ScCsoR; test: competition EMSA; 50-fold excess over 79-bp probe; 20 mM Tris-HCl pH 8.0, 2 mM EDTA, 20 mM KCl, 0.5 mM DTT (or 1-3 mM HSnH), 4% Ficoll-400, 1 nM probe, 25 C, 15 min; settings: protein: recombinant; tags: N-terminal His-tag (pET15b); chain copies: 4; blunt

Row | Molecule | binding [1] | also measured
1 | ACGGCGCGGGGGCGGCGTGAGCAGACGACGAGCACACCCTCTCAATACCCCCCTGGGTATATCTGTTACGGTGGCCGGAAGAGATACCCCAGGGGGTAATTCCGGAAGGA (double strand) [Scpdo promoter f2] | binds | 
2 | AGGACGTCGACAAAGAACACGGCACGCTCTCCTTCCGGAATTACCCCCTGGGGTATCTCTTCCGGCCACCGTAACAGATATACCCAGGGGGGTATTGAGAGGGTGTGC (double strand) [Scpdo promoter f3] | binds | 
3 | CGACGACGGTGAACTCGGCCAGGCGGGCCGCCGCCTGCCCGGTGGTCAGTGCGGTGGCGGTTGCTGCGGGGGTGTTCACGGAGCGAGACCTTTCTCGTTGTTCGTCCCCCCGCGCGGTAGGATACCCGCGGGGGTATGTGGGGTTCGGTGAGGTATCGGGTGGAGGAGAGGGAGAAGCGTGGAGCTCGACATGTCGGCCGACGAACTGAAGTCGGCGCTGAACCGGCTGCGGCGCGCCCAGGGGCAGCTCGCGGGAGTCAT (double strand) [SccsoR-Scrhod intergenic region 261 bp] | binds | 
4 | CGGTGACCTTCTCCGCCCCGTGTTCGGCGGCGAGGCGCACCGCGGCCTCGGCCAGAGCGGCACGTGTGGCCCGCTTCTTCCGCTCCCGCAGACCGCCCCCCGCGGCACCCTTCTCCGACATAAGTTGCATGGTATGCAAAGATGCATGACATGCAAAATTGGCGGGCGCCGACCCCGGAAGGGGATCGGCGCCCGCCGTCGTCGGTGCGGCTCAGGCGGCCAGTCGGGCCAGCGTCTCCTCG (double strand) [sco0622 promoter 242 bp] | no binding | 
5 | GCCAGATAGCTGCGGTTGCCCAGTGACTCGGTCTCCAGGACGTCGACAAAGAACACGGCACGCTCTCCTTCCGGAATTACCCCCTGGGGTATCTCTTCCGGCCACCGT (double strand) [Scpdo promoter f4] | no binding | 
6 | GCCAGATAGCTGCGGTTGCCCAGTGACTCGGTCTCCAGGACGTCGACAAAGAACACGGCACGCTCTCCTTCCGGAATTACCCCCTGGGGTATCTCTTCCGGCCACCGTAACAGATATACCCAGGGGGGTATTGAGAGGGTGTGCTCGTCGTCTGCTCACGCCGCCCCCGCGCCGTCGCGGGCCGAGTGCGCCGCCGCTGCGCGCCTGTGCCGCGAGACCCGGGCAACTCCGGTGTACGACGCCGAAGTTGGGGTAC (double strand) [Scpdo promoter 256 bp] | binds | binding [2]: binds; binding [3]: binds; binding [4]: binds
7 | TCTGCTCACGCCGCCCCCGCGCCGTCGCGGGCCGAGTGCGCCGCCGCTGCGCGCCTGTGCCGCGAGACCCGGGCAACTCCGGTGTACGACGCCGAAGTTGGGGTAC (double strand) [Scpdo promoter f1] | no binding | 
8 | B1 |  | binding result [5]: binds
9 | B2 |  | binding result [6]: no binding
